In US8013137B2, “Modified enteropeptidase protein” (National University Corporation Hokkaido University, priority 2006, dated 2011) one finds Km, kcat and kcat/Km data, which are given here for 6 proteins.

Substrate in data set [1]: Cc1cc(=O)oc2cc(NC(=O)[C@H](CCCNC(=N)N)NC(=O)[C@H](C)NC(=O)[C@H](CCC(=O)OCc3ccccc3)NC(=O)OC(C)(C)C)ccc12
In words: purified protein, by the assay type.

Substrate in data set [2]: Cc1cc(=O)oc2cc(NC(=O)[C@H](CCCNC(=N)N)NC(=O)[C@H](Cc3ccccc3)NC(=O)[C@@H]3CCCN3)ccc12
The data set can be described thus: purified protein, by the assay type.

Substrate in data set [3]: Cc1cc(=O)oc2cc(NC(=O)[C@H](CCCNC(=N)N)NC(=O)[C@H](Cc3ccccc3)NC(=O)OCc3ccccc3)ccc12
In words: purified protein, by the assay type.

Substrate in data set [4]: Cc1cc(=O)oc2cc(NC(=O)[C@H](CCCNC(=N)N)NC(=O)[C@H](C)NC(=O)[C@H](CCC(=O)OCc3ccccc3)NC(=O)OC(C)(C)C)ccc12
The data set can be described thus: Kinetic parameters for MCA-containing peptide substrates, EP-1(WT). The following applies: other: EP-1(WT). Format: biochemical, Japanese Medaka (Oryzias latipes).

Substrate in data set [5]: Cc1cc(=O)oc2cc(NC(=O)[C@H](CCCNC(=N)N)NC(=O)[C@H](Cc3ccccc3)NC(=O)[C@@H]3CCCN3)ccc12
The data set is described as above. The following applies: other: EP-1(WT). Format: biochemical, Japanese Medaka (Oryzias latipes).

Substrate in data set [6]: Cc1cc(=O)oc2cc(NC(=O)[C@H](CCCNC(=N)N)NC(=O)[C@H](Cc3ccccc3)NC(=O)OCc3ccccc3)ccc12
The data set is described as above. Format: biochemical, Japanese Medaka (Oryzias latipes). The following applies: other: EP-1(WT).

Substrate in data set [7]: Cc1cc(=O)oc2cc(NC(=O)[C@H](CCCNC(=N)N)NC(=O)[C@H](C)NC(=O)[C@H](CCC(=O)OCc3ccccc3)NC(=O)OC(C)(C)C)ccc12
In words: Kinetic parameters for MCA-containing peptide substrates, porcine EP. It counts as biochemical. The following applies: other: Porcine.

Substrate in data set [8]: Cc1cc(=O)oc2cc(NC(=O)[C@H](CCCNC(=N)N)NC(=O)[C@H](Cc3ccccc3)NC(=O)[C@@H]3CCCN3)ccc12
The description is as above. The following applies: other: Porcine. It counts as biochemical.

Substrate in data set [9]: Cc1cc(=O)oc2cc(NC(=O)[C@H](CCCNC(=N)N)NC(=O)[C@H](Cc3ccccc3)NC(=O)OCc3ccccc3)ccc12
The data set is described as above. Format: biochemical. The following applies: other: Porcine.

Changes are numbered by the printed parent chain. Numbers in names are those of the source.

A word on the Km: it is the substrate concentration at which the rate is half of its maximum. A word on the kcat: it is the number of substrate molecules converted per active site and unit of time at saturation. One may read the kcat/Km as the turnover number divided by the Michaelis constant.

B1: medaka EP-1 enteropeptidase serine protease domain (parent SEQ ID NO: 2), variant T105E (Oryzias latipes; T882E) (protein)
chain: VVGGVNAEKGAWPWMVSLHWRGRHGCGASLIGRDWLLTAAHCVYGKNTHLQYWSAVLGLHAQSSMNSQEVQIRQVDRIIINKNYNRREKEADIAMMHLQQPVNFTEWVLPVCLASEDQHFPAGRRCFIAGWGRDAEGGSLPDILQEAEVPLVDQDECQRLLPEYTFTSSMLCAGYPEGGVDSCQGDSGGPLMCLEDARWTLIGVTSFGVGCGRPERPGAYARVSAFTSWIAETRRSSFSDLD
In the case of B1, in [1] (other: T105E), the Km was found to be 1300 µM, the catalytic constant (kcat) amounted to 0.183 s⁻¹ and the catalytic efficiency (kcat/Km) came out at 150 M⁻¹ s⁻¹. Further, in [2] (other: T105E), the Km was 1300 µM, the kcat stood at 0.267 s⁻¹ and the kcat/Km amounted to 200 M⁻¹ s⁻¹. Also, in data set [3] (other: T105E), the Michaelis constant (Km) worked out at 100 µM, the kcat is 0.0333 s⁻¹ and the kcat/Km came to 333 M⁻¹ s⁻¹.

B2: medaka EP-1 enteropeptidase serine protease domain (parent SEQ ID NO: 2), variant E173A, SEQ ID NO: 4 (Oryzias latipes; E950A) (protein)
chain: B1 chain with E88T, E156A
On to B2, for which, in data set [1] (other: E173A), the Km worked out at 1000 µM, the catalytic constant (kcat) turned out to be 0.167 s⁻¹ and the kcat/Km came out at 167 M⁻¹ s⁻¹. In data set [2] (other: E173A), the Km was found to be 1000 µM, the kcat was 0.153 s⁻¹ and the catalytic efficiency (kcat/Km) was 150 M⁻¹ s⁻¹. For the same protein, in data set [3] (other: E173A), the Km turned out to be 400 µM, the kcat was 0.0383 s⁻¹ and the kcat/Km is 100 M⁻¹ s⁻¹.

B3: medaka EP-1 enteropeptidase serine protease domain, wild type, SEQ ID NO: 2 (Oryzias latipes) (protein)
chain: B1 chain with E88T
In the case of B3, in [4], the Km was determined as 200 µM, the kcat came out at 0.112 s⁻¹ and the kcat/Km is 567 M⁻¹ s⁻¹. For the same protein, in data set [5], the Km is 10000 µM, the kcat was found to be 2.33 s⁻¹ and the catalytic efficiency (kcat/Km) is 233 M⁻¹ s⁻¹. For the same protein, in data set [6], the Michaelis-Menten constant (Km) was determined as 100 µM, the catalytic constant (kcat) was 0.0483 s⁻¹ and the kcat/Km is 483 M⁻¹ s⁻¹.

B4: porcine EP serine protease domain (Ile800 to His1034) (Sus scrofa) (protein)
chain: IVGGNDSREGAWPWVVALYYNGQLLCGASLVSRDWLVSAAHCVYGRNLEPSKWKAILGLHMTSNLTSPQIVTRLIDEIVINPHYNRRRKDSDIAMMHLEFKVNYTDYIQPICLPEENQVFPPGRICSIAGWGKVIYQGSPADILQEADVPLLSNEKCQQQMPEYNITENMMCAGYEEGGIDSCQGDSGGPLMCLENNRWLLAGVTSFGYQCALPNRPGVYARVPKFTEWIQSFLH
For B4, in [7], the Michaelis-Menten constant (Km) came to 300 µM, the kcat turned out to be 1.83 s⁻¹ and the specificity constant (kcat/Km) is 6170 M⁻¹ s⁻¹. Besides, in data set [8], the Km was 3900 µM, the kcat was found to be 5 s⁻¹ and the kcat/Km was 1280 M⁻¹ s⁻¹. For the same protein, in [9], the Michaelis constant (Km) amounted to 200 µM, the kcat worked out at 0.917 s⁻¹ and the kcat/Km was found to be 4670 M⁻¹ s⁻¹.

B5: medaka EP-1 enteropeptidase serine protease domain (parent SEQ ID NO: 2), variant P193E (Oryzias latipes; P970E) (protein)
chain: CGQRQVYNSKENNGVPRVVGGVNAEKGAWPWMVSLHWRGRHGCGASLIGRDWLLTAAHCVYGKNTHLQYWSAVLGLHAQSSMNSQEVQIRQVDRIIINKNYNRRTKEADIAMMHLQQPVNFTEWVLPVCLASEDQHFPAGRRCFIAGWGRDAEGGSLPDILQEAEVPLVDQDECQRLLPEYTFTSSMLCAGYEEGGVDSCQGDSGGPLMCLEDARWTLIGVTSFGVGCGRPERPGAYARVSAFTSWIAETRRSSFSDLD
On to B5, for which, in data set [1] (other: P193E), the Michaelis constant (Km) stood at 200 µM, the catalytic constant (kcat) worked out at 0.0383 s⁻¹ and the kcat/Km turned out to be 200 M⁻¹ s⁻¹. Also, in data set [2] (other: P193E), the Michaelis-Menten constant (Km) was found to be 1000 µM, the kcat came out at 0.45 s⁻¹ and the kcat/Km turned out to be 450 M⁻¹ s⁻¹. In data set [3] (other: P193E), the Km amounted to 200 µM, the kcat is 0.0283 s⁻¹ and the kcat/Km is 150 M⁻¹ s⁻¹.

B6: medaka EP-1 enteropeptidase serine protease domain (parent SEQ ID NO: 2), variant K63R (Oryzias latipes; K840R) (protein)
chain: B5 chain with K63R, E193P
For the protein B6, in data set [1] (other: K63R), the Km stood at 1200 µM, the catalytic constant (kcat) came out at 0.2 s⁻¹ and the specificity constant (kcat/Km) amounted to 167 M⁻¹ s⁻¹. Further, in data set [2] (other: K63R), the Km was 1100 µM, the kcat is 0.183 s⁻¹ and the kcat/Km is 167 M⁻¹ s⁻¹. Moreover, in [3] (other: K63R), the Km was found to be 100 µM, the turnover number (kcat) turned out to be 0.0233 s⁻¹ and the kcat/Km stood at 233 M⁻¹ s⁻¹.
